From US20240239885A1, “ANTIBODY CONJUGATE COMPRISING ANTI-P-CADHERIN ANTIBODY AND USES THEREOF” (WUXI BIOLOGICS IRELAND LIMITED, priority 2021, published 2024)
Starred links: 1 amine or outer side, 2 acyl side, 3 side chain; linkers in the order of their positions; H or OH if unused. Non-standard residues stand in square brackets, D forms with d. Residues, ends and D or L forms follow the SMILES beside them. *: point of attachment. Dolaproine = CO[C@@H]([C@@H]1CCCN1)[C@@H](C)C(=O)O; Hexanoyl(6-maleimido) = O=C1C=CC(=O)N1CCCCCC(=O)*; Dil = CC[C@H](C)[C@H](NC)[C@@H](CC(=O)O)OC; PABC = O=C(OCc1ccc(N[*:1])cc1)[*:2]; X1 = C[C@@H](N*)[C@@H](O)c1ccccc1; Cit = NC(=O)NCCC[C@H](N)C(=O)O; NMeV = CN[C@H](C(=O)O)C(C)C

Columns and labels:
A549 cells = assay: Cytotoxicity assay of ADC (Cell Titer Glo) on A549; type: cell-based, human; settings: for IC50: A549 (P-cadherin low expressing), 5 days, read-out: IC50 (nM), ADC toxicity; for Max Inh %: A549, 5 days
MDA-MB-453 cells = assay: Cytotoxicity assay of ADC (Cell Titer Glo) on MDA-MB-453; type: cell-based, human; settings: for IC50: MDA-MB-453 (P-cadherin low expressing), 5 days, read-out: IC50 (nM), ADC toxicity; for Max Inh %: MDA-MB-453, 5 days
NCI-H1650 cells = assay: Cytotoxicity assay of ADC (Cell Titer Glo) on NCI-H1650; type: cell-based, human; settings: NCI-H1650, 5 days
HT-29 cells = assay: Cytotoxicity assay of ADC (Cell Titer Glo) on HT-29; settings: for Max Inh %: HT-29, 5 days; for IC50: read-out: IC50 (nM), ADC cytotoxicity, HT-29 (P-cadherin low expressing), 5 days
HCC-70 cells = assay: Cytotoxicity assay of ADC (Cell Titer Glo) on HCC-70; settings: HCC-70, 5 days; for IC50: read-out: IC50 (nM), ADC cytotoxicity
HCC-1954 cells = assay: Cytotoxicity assay of ADC (Cell Titer Glo) on HCC-1954; settings: HCC-1954, 5 days; for IC50: read-out: IC50 (nM), ADC cytotoxicity
[1] = target: T1, human P-cadherin expressed on cells (human, UniProt P22223 108-829); assay: FACS on HCT-116 cells
Description: Binding of the ADCs to P-cadherin expressed on HCT-116 cells was determined by flow cytometry analysis using the same procedure as described above. […] 1×10⁵ cells/well (100 μL) were added to each well of a 96-well U-plate (Corning, #3799) and centrifuged at 1500 rpm (Eppendorf, #5810R) for 5 minutes before removing the supernatant. Antibodies serially diluted in 1% BSA/1×PBS (Ca+/Mg+) were added at 100 μL/well to the pelleted cells and incubated at 4° C. for 1 hour. […] Cells were washed two times with 180 μL/well of 1% BSA/1×PBS (Ca+/Mg+) by centrifugation at 1500 rpm for 5 minutes at 4° C. Pelleted cells were resuspended in 100 μL/well Alexa647 conjugated Goat anti-human IgG Fc (Jackson, #109-605-098) 1:500 diluted in 1% BSA/1×PBS (Ca+/Mg+) for 30 minutes at 4° C. in the dark. Cells were then washed two times as described above. After the final wash, cells were resuspended in 100 μL 1% BSA/1×PBS (Ca+/Mg+) and fluorescence values were measured with a FACS Canto II cytometer (BD Biosciences). The amount of cell surface bound anti-P-Cadherin antibody was assessed by measuring the mean fluorescence (MFI).

[2] = target: T1, human P-cadherin expressed on cells; assay: FACS on NCI-H1650 cells
[3] = target: T2, P-Cadherin ECD domain 1 (aa 108-236) (human, UniProt P22223 108-236); assay: direct ELISA, coated antigen
T2 construct: range 108-236; also called huCDH3 ECD Domain1
Description: (§1) The binding domains of the antibody drug conjugates to human P-Cadherin extra cellular domain (ECD) were determined by a direct protein binding ELISA. 96-well high protein binding ELISA plates (Nunc) were coated overnight at 4° ° C. with antigens in coating buffer. All wells were washed three time with PBS/0.5%. Tween-20 (v/v) and all the following wash steps in the assay were performed the same. The wells were then blocked for one hour with 2% BSA (Bovogen)/1×PBS (Ca+/Mg+) (Gibco) and washed three times. For the primary antibody binding, the testing antibodies including the BMKs and our antibodies serially diluted in 2% BSA/1×PBS (Ca+/Mg+) were added to the relevant wells and incubated at ambient temperature for two hours. Plates were washed three times prior to the addition of 100 μL of secondary antibody Goat anti-Human-IgG-F(ab′)2-HRP (Jackson) diluted in 2% BSA/1×PBS (Ca+/Mg+). Plates were incubated at room temperature for one hour, followed by six washes as describe above.
(§2) For the binding detection, 100 μL Tetramethylbenzidine (TMB) Substrate solution (Invitrogen) was added to all wells before stopping the reaction with 100 μL 2M HCl. The extent of the testing Abs binding to P-Cadherin ECD (i.e. huCDH3 ECD, Uniprot ID: P22223 aa108-654), P-Cadherin ECD domain 1 (aa 108-236), P-Cadherin ECD domain 1+2 (aa 108-348), P-Cadherin ECD domain 1+2+3 (aa 108-461), P-Cadherin ECD domain 1+2+3+4 (aa 108-550) proteins were determined by measuring the OD450-OD540 absorbance using the SpectraMax® M5e microplate reader. EC50 values were obtained by the four-parameter non-linear regression analysis using GraphPad Prism software.

[4] = target: T3, P-Cadherin ECD domain 1+2 (aa 108-348) (human, UniProt P22223 108-348); assay: direct ELISA, coated antigen
T3 construct: range 108-348; also called huCDH3 ECD Domain1 + 2
Description: as §1, §2

[5] = target: T4, P-Cadherin ECD domain 1+2+3 (aa 108-461) (human, UniProt P22223 108-461); assay: direct ELISA, coated antigen
T4 construct: range 108-461; also called huCDH3 ECD Domain1 + 2 + 3
Description: as §1, §2

[6] = target: T1, human P-cadherin expressed on cells; assay: cell-based or functional assay
[7] = target: T1, human P-cadherin expressed on cells; assay: cell-based or functional assay; remark: listed apart in the source
[8] = target: T1, human P-cadherin expressed on cells; assay: cell-based or functional assay; remark: listed apart in the source
[9] = target: T1, human P-cadherin expressed on cells; assay: cell-based or functional assay; remark: listed apart in the source
[10] = target: T1, human P-cadherin expressed on cells; assay: cell-based or functional assay; remark: listed apart in the source
[11] = target: T5, P-Cadherin ECD domain 1+2+3+4 (aa 108-550) (human, UniProt P22223 108-550); assay: direct ELISA, coated antigen
T5 construct: range 108-550; also called huCDH3 ECD Domain1 + 2 + 3 + 4
Description: as §1, §2

[12] = target: T6, P-Cadherin ECD (huCDH3 ECD, Uniprot ID: P22223 aa108-654) (human, UniProt P22223 108-654); assay: direct ELISA, coated antigen
T6 construct: range 108-654; also called extracellular domain of human P-cadherin
Description: as §1, §2

[13] = target: T1, human P-cadherin expressed on cells; assay: FACS on HCT-116 cells after 1 day in human serum at 37 C
Description: (§3) The antibody stability in human serum was tested by FACS. Briefly, human serum was freshly isolated by centrifuging the fresh blood twice at 4000 rpm for 10 minutes. […] As a control, antibodies serum mix was frozen immediately without 37° C. incubation. For the FACS analysis, the samples from different time points were free-thawed simultaneously at 4° C. […] The cells were washed twice with 1% BSA/1×PBS (Ca+/Mg+). Alexa647 conjugated Goat anti-human IgG Fc (Jackson, #109-605-098) 1:500 diluted in 1% BSA/1×PBS (Ca+/Mg+) were added to the cells and incubated at 4° C. for 30 minutes. Cells were washed twice in the same buffer and the mean fluorescence (MFI) of stained cells was measured using a FACS Canto II cytometer (BD Biosciences) and analyzed by FlowJo. Wells containing no antibody or secondary antibody only were used to establish background fluorescence. Four-parameter non-linear regression analysis was used to obtain EC50 values for cell binding using GraphPad Prism6 software.

[14] = target: T1, human P-cadherin expressed on cells; assay: FACS on HCT-116 cells after 4 days in human serum at 37 C
Description: as §3

[15] = target: T1, human P-cadherin expressed on cells; assay: FACS on HCT-116 cells after 7 days in human serum at 37 C
Description: as §3

[16] = target: T1, human P-cadherin expressed on cells; assay: FACS affinity test on NCI-H1650 cells, quantitative beads
[17] = target: T1, human P-cadherin expressed on cells; assay: FACS on HCT-116 cells after 14 days in human serum at 37 C
Description: as §3

[18] = target: T2, P-Cadherin ECD domain 1 (aa 108-236); assay: direct ELISA on coated huCDH3 ECD Domain1, goat anti-human IgG F(ab')2-HRP detection
Description: as §1, with “Plates were washed three times prior to the addition of 100 μL of secondary antibody Goat anti-Human-IgG-F(ab′)2-HRP (Jackson) diluted in 2% BSA/1×PBS (Ca+/Mg+). Plates were incubated at room temperature for one hour, followed by six washes as describe above.” left out
as §2, with “EC50 values were obtained by the four-parameter non-linear regression analysis using GraphPad Prism software.” left out

[19] = target: T3, P-Cadherin ECD domain 1+2 (aa 108-348); assay: direct ELISA on coated huCDH3 ECD Domain1+2, goat anti-human IgG F(ab')2-HRP detection
Description: as §1, with “Plates were washed three times prior to the addition of 100 μL of secondary antibody Goat anti-Human-IgG-F(ab′)2-HRP (Jackson) diluted in 2% BSA/1×PBS (Ca+/Mg+). Plates were incubated at room temperature for one hour, followed by six washes as describe above.” left out
as §2, with “EC50 values were obtained by the four-parameter non-linear regression analysis using GraphPad Prism software.” left out

T2 sequence (P22223 108-236 limits assumed): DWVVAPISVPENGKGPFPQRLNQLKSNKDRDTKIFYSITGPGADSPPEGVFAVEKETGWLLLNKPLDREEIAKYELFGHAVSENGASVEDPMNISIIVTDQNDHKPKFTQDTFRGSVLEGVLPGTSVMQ
T3 sequence (P22223 108-348 limits assumed): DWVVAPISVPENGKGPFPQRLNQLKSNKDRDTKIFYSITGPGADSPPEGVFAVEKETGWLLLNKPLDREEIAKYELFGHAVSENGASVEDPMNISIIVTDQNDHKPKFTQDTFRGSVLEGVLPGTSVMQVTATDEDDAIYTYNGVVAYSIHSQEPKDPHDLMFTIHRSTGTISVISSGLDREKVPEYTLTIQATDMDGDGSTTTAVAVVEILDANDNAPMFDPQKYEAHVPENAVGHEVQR
T1 sequence (P22223 108-829): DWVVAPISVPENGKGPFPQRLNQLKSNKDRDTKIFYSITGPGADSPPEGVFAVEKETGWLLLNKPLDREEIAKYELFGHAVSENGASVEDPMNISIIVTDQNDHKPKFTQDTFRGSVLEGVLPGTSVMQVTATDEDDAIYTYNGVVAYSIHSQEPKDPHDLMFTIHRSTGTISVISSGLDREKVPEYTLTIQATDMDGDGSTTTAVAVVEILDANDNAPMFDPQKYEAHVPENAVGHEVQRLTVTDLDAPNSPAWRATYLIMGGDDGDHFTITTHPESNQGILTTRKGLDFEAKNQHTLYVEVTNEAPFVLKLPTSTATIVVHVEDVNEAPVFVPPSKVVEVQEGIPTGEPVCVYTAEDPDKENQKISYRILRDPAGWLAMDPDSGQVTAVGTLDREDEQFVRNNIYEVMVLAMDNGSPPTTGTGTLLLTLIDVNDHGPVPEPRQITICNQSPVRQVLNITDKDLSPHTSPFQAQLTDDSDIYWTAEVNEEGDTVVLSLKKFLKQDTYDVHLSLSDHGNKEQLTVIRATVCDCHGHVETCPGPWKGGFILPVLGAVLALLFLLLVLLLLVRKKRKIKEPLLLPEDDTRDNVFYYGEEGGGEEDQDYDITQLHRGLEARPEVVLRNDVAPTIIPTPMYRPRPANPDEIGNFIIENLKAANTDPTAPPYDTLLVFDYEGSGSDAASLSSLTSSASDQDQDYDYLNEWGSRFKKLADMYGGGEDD
T4 sequence (P22223 108-461 limits assumed): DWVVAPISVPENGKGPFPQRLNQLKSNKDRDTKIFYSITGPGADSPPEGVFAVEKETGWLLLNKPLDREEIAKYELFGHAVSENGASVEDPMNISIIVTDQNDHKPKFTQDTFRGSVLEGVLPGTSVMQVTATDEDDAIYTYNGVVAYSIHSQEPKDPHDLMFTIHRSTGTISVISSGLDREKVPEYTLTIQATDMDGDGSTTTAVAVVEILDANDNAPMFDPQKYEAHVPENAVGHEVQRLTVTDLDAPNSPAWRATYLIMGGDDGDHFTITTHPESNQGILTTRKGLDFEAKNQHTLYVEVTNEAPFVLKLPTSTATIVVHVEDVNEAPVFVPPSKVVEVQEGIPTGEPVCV
T5 sequence (P22223 108-550 limits assumed): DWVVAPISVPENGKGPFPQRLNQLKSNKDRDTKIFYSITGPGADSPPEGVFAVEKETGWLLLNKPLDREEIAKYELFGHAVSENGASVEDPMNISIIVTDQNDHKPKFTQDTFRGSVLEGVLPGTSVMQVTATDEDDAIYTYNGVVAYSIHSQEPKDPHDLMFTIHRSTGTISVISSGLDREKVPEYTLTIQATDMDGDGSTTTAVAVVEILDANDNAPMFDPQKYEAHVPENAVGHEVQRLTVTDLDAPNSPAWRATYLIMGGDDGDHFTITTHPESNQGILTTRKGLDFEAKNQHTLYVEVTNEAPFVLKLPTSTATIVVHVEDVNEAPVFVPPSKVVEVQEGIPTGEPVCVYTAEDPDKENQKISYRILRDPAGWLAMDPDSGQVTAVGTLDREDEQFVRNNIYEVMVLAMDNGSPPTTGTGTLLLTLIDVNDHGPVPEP
T6 sequence (P22223 other isoform, or with tags, fused parts or gaps limits assumed): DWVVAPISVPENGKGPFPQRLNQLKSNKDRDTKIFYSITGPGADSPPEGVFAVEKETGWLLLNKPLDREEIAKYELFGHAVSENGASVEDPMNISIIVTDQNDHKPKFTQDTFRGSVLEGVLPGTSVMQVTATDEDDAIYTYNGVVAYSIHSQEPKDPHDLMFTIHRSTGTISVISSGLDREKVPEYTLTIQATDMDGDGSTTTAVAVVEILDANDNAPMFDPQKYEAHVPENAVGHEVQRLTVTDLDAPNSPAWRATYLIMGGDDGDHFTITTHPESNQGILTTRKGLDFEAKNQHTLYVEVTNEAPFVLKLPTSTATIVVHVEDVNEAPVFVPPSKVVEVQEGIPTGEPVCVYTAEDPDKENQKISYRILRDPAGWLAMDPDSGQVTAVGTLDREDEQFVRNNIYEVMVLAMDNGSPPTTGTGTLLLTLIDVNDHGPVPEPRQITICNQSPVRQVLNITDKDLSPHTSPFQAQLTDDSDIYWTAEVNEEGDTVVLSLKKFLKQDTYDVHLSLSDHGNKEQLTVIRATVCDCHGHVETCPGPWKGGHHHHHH

CC[C@H](C)[C@@H]([C@@H](CC(=O)N1CCC[C@H]1[C@H](OC)[C@@H](C)C(=O)N[C@H](C)[C@@H](O)c1ccccc1)OC)N(C)C(=O)[C@@H](NC(=O)[C@@H](NC)C(C)C)C(C)C [Free drug (MMAE), mono-methyl auristatin E] (H-[NMeV]V[Dil][Dolaproine]-X1)
IC50 (A549 cells): 1.37 nM | Max Inh % (A549 cells): 89.2% | IC50 (MDA-MB-453 cells): 1.28 nM | Max Inh % (MDA-MB-453 cells): 96.7% | Max Inh % (NCI-H1650 cells): 81% | Max Inh % (HT-29 cells): 95.5% | IC50 (HT-29 cells): 0.52 nM | Max Inh % (HCC-70 cells): 87.2% | IC50 (HCC-70 cells): 0.23 nM | Max Inh % (HCC-1954 cells): 97.7% | IC50 (HCC-1954 cells): 0.05 nM

CC[C@H](C)[C@@H]([C@@H](CC(=O)N1CCC[C@H]1[C@H](OC)[C@@H](C)C(=O)N[C@H](C)[C@@H](O)c1ccccc1)OC)N(C)C(=O)[C@@H](NC(=O)[C@H](C(C)C)N(C)C(=O)OCc1ccc(NC(=O)[C@H](CCCNC(N)=O)NC(=O)[C@@H](NC(=O)CCCCCN2C(=O)C=CC2=O)C(C)C)cc1)C(C)C [Free payload control (MC-VC-PAB-MMAE), MC-VC-PAB-MMAE] ({Hexanoyl(6-maleimido)}-V[Cit][PABC][NMeV]V[Dil][Dolaproine]-X1)
IC50 (A549 cells): > 10 nM | Max Inh % (A549 cells): −5.4% | IC50 (MDA-MB-453 cells): > 10 nM | Max Inh % (MDA-MB-453 cells): −0.6% | IC50 (NCI-H1650 cells): > 10 nM | Max Inh % (NCI-H1650 cells): 1% | Max Inh % (HT-29 cells): −0.1% | IC50 (HT-29 cells): > 10 nM | Max Inh % (HCC-70 cells): 1.3% | IC50 (HCC-70 cells): > 10 nM | Max Inh % (HCC-1954 cells): 20.1% | IC50 (HCC-1954 cells): > 10 nM

Isotype control (non-related hIgG1 antibody)
Max MFI [1]: 402 MFI | Max MFI [2]: 331 MFI | Max OD [3]: 0.014 OD450-OD540 | Max OD [4]: 0.014 OD450-OD540 | Max OD [5]: 0.015 OD450-OD540

B1: W3195-1.53.1-p1-uIgG1L-MMAE (antibody, V domains shown)
VH: QVQLQESGPGLVKPSETLSLTCTVSGGSVISDNYYWTWVRQPPGKGLEFIGYIYYRGSTNYNPSLKNRVIISIDTSRNQFSLDLNSVTAADTAVYYCARDRRTGNSLPFDNWGQGTLVTVSS
VL: SYELTQPPSVSVSPGQTAQITCSGDKLGDKFASWYQQKSGQSPVVVIYQDNKRPSGFPERFSGSNSGNTATLTISGTQAMDEADYYCQAWDSSIVVFGGGTKLTVLG
modifications: MC-vc-PAB-MMAE conjugated to cysteine thiols after TCEP reduction (positions not stated); HIC-DAR 3.86 per antibody
notes: also called W3195-p1-MMAE; WBP3195-p1-ADC
EC50 [1]: 0.17 nM | ADC Cytotoxicity on HCC-1954, IC50 [6]: 0.011 nM | ADC Cytotoxicity on HCC-70, IC50 [7]: 0.065 nM | ADC Cytotoxicity on NCI-H1650, IC50 [8]: 0.027 nM | Internalization of HCC-1954 cells in HCS assay, EC50 [9]: 0.023 nM | Internalization of NCI-H1650 cells in HCS assay, EC50 [10]: 0.22 nM | EC50 [2]: 0.075 nM | EC50 [11]: 0.17 nM | Max OD [11]: 0.75 OD450-OD540 | EC50 [12]: 0.23 nM | Max OD [12]: 0.65 OD450-OD540 | Max OD [3]: 0.19 OD450-OD540 | Max OD [4]: 0.16 OD450-OD540 | EC50 [5]: 0.2 nM | Max OD [5]: 0.95 OD450-OD540 | EC50 [13]: 0.15 nM | EC50 [14]: 0.18 nM | EC50 [15]: 0.17 nM | Kd [16]: 0.168 nM | EC50 [17]: 0.18 nM | binding result [18]: no binding (tested: about 20 nM) | binding result [19]: no binding (tested: about 20 nM)
